Measurements reported in US20080182795A1 (BOSTON MEDICAL CENTER, published 2008).
Where no end group is shown, it is not given here.

Legend:
[1] = biological target: T1, GLP-1 receptor of βTC3 cells (mouse, UniProt O35659 22-463); experiment: competition with [125I]GLP-1 for binding to βTC3 cells (GLP-1 receptor), room temperature
T1 construct: whole, on cells; also called βTC3 cell receptor; GLP-1 receptors
T1 sequence (looked up): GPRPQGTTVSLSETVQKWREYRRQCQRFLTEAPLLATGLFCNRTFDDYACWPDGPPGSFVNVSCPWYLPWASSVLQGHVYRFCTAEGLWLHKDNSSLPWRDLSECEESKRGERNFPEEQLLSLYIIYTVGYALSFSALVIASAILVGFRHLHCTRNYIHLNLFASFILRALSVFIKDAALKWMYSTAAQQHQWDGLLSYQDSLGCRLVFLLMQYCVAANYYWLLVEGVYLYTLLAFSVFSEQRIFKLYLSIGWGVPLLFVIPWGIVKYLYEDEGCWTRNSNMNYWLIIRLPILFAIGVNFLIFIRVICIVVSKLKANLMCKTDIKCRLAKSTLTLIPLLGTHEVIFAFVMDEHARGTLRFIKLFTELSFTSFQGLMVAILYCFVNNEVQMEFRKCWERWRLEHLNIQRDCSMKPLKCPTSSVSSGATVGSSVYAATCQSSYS
Procedure: (§1) The specific activity of radiolabeled peptides was 10-50 μCi/mg (Hunter, et al., 1962, Nature, 194:495-498; Kieffer, et al., 1993, Can. J Physiol. Pharmacol., 71:917-922). Aliquots were lyophilized and reconstituted in assay buffer at 4° C. to a concentration of 3×10⁵ cpm/100 μl. […] The receptor binding buffer contained 138 mM NaCl, 5.6 mM KCl, 1.2 mM MgCl₂, 2.6 mM CaCl₂, 10 mM Hepes, 10 mM glucose, and 1% bovine serum albumin (BSA, fraction V, protease free, Sigma). […] Cells were washed once with PBS and then harvested with PBS-EDTA solution. βTC3 cells were then suspended in assay buffer at a density of 2×10⁶ cells/ml, and LGIPR2 cells were used at a density of 2.5×10⁵ cells/ml. […] Specific binding was defined as the difference between counts in the absence and presence of unlabeled peptide. […] Values are expressed as a percentage of maximum specific binding and are the mean ±SE, with assays performed in duplicate.

[2] = biological target: T2, rat GIP receptor (rat, UniProt P43219 19-455); experiment: competition with [125I]GIP (porcine) for binding to LGIPR2 cells carrying the rat GIP receptor, room temperature
T2 construct: whole, on cells; LGIPR2 cells also carry a cAMP-dependent VIP promoter-lacZ reporter; also called LGIPR2 cells; LGIRP2 cells
T2 sequence (looked up): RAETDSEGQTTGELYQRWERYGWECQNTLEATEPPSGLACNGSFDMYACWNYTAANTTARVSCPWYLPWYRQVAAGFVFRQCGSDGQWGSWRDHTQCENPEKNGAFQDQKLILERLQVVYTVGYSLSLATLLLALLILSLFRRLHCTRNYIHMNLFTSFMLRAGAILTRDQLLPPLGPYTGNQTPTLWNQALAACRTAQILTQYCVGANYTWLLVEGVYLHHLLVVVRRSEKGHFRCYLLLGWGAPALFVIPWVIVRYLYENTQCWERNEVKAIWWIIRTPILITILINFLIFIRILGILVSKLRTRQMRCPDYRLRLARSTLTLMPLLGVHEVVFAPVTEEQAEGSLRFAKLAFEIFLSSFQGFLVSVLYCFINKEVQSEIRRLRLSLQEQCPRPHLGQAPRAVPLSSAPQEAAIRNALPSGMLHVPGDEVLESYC
Procedure: as §1

Binder: ISDYSIAMDKIRQQDFVNWLLAQK-NH2 (also called ANTGIP; ANTGIIP) [GIP (7-30)-NH2]
- IC50 [1]: 80 µM
- IC50 [2]: 0.2 µM
